Test results reported in patent US20190002587A1 (AROCELL, published 2019).
Where no end group is shown, it is not given here.

Legend:
human recombinant TK1 [1] = biological target: T1, human recombinant TK1 (human, UniProt P04183 1-234, limits assumed); assay: Attana quartz crystal microbalance, antibody captured by anti-mouse IgG on the chip, recombinant TK1 injected at 20 to 1.25 ug/ml, 1:1 binding model
T1 construct: also called human rTK1; rTK1
T1 sequence (looked up): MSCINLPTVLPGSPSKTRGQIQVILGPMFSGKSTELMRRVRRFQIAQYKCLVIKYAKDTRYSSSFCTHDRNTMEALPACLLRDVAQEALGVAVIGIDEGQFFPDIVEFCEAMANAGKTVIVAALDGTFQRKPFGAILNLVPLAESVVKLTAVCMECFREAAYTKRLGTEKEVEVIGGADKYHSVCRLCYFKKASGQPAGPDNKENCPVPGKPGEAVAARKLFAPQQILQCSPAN
Protocol: (§1) In the experiment shown in FIGS. 8A and 8B an LNB Carboxyl sensor chip was used, which was pre-reacted with the Mouse IgG capture kit (Biacore, GE Healthcare) with the amine coupling procedure. The ligands were XPA 210-Ar1 and XPA 210-Ar2 and they were captured to the surface with anti-mouse antibodies by two injections of 50 μg/ml antibody solutions in a 10 mM acetate buffer pH 4.5. An identically treated chip without the capture antibody was used a negative control. Pure recombinant TK1, diluted to 20 μg/ml in 10 mM HEPES, 150 mM NaCl, 0.005% Tween 20, pH 7.4, was injected over the surface at 25 μl/min. The association time was 84 s and the dissociation was measured for another 300 s. Buffer without recombinant TK1 was injected as a blank and subtracted from the sample injection signals.
(§2) An 1:1 binding model was used for calculation of the kinetic constants from the fitted curves of the double reference data as shown in FIGS. 8A and 8B.

human recombinant TK1 [2] = biological target: T1, human recombinant TK1; assay: Attana 200 quartz crystal microbalance biosensor, antibody captured by anti-mouse IgG, rTK1 injected, 1:1 model
Protocol: as §1, §2

KPGEAVAARK [3] = biological target: T2, KPGEAVAARK (human, also: biotinylated); assay: Pepscan ELISA, peptide on streptavidin plate
T2 peptide: KPGEAVAARK
Protocol: (§3) In order to determine the amino acid region to which the selected monoclonal antibodies bind a Pepscan analysis with biotinylated 10 amino acid target peptides was carried out. The procedure is based on synthesis of a set of 14 ten-mer amino acid peptides representing the region from 193 to 226 of the TK1 sequence as shown in connection with Example 1. Each peptide has an eight amino acids overlap and two amino acids gaps, leading to a set of 14 different peptides, see Table 2. The entire full-length peptide is also included and all these peptides were immobilized on a streptavidine coated microtiter plate. After a 1 hour adsorption step the plates were washed with PBS, 1% BSA and 0.1% Tween 20. The different antibodies were then added at approximately 5 μg/ml and the plates were incubated for 1 hour, followed by washing three times. Then a HRP conjugate was added and incubated for 1 hour. The plates were then washed six times with the same buffer. Finally the absorbance was determined with 100 μl 3,3′,5,5′-tetramethylbenzidine (TMB) substrate and the results from one test with a series of antibodies are shown in Table 2.

PGKPGEAVAA [4] = biological target: T3, PGKPGEAVAA (human, also: biotinylated); assay: Pepscan ELISA, peptide on streptavidin plate
T3 peptide: PGKPGEAVAA
Protocol: as §3

ARKLFAPQQI [5] = biological target: T4, ARKLFAPQQI (human, also: biotinylated, position not given here); assay: Pepscan ELISA, peptide on streptavidin plate
T4 peptide: ARKLFAPQQI
Protocol: as §3

ASGQPAGPDN [6] = biological target: T5, ASGQPAGPDN (human, also: biotinylated, position not given here); assay: Pepscan ELISA, peptide on streptavidin plate
T5 peptide: ASGQPAGPDN
Protocol: as §3

AARKLFAPQQ [7] = biological target: T6, AARKLFAPQQ (human, also: biotinylated, position not given here); assay: Pepscan ELISA, peptide on streptavidin plate
T6 peptide: AARKLFAPQQ
Protocol: as §3

GEAVAARKLF [8] = biological target: T7, GEAVAARKLF (human, also: biotinylated); assay: Pepscan ELISA, peptide on streptavidin plate
T7 construct: also called 10-mer; 10-mer peptide
T7 peptide: GEAVAARKLF
Protocol: as §3

KENCPVPGKP [9] = biological target: T8, KENCPVPGKP (human, also: biotinylated); assay: Pepscan ELISA, peptide on streptavidin plate
T8 peptide: KENCPVPGKP
Protocol: as §3

AVAARKLFAP [10] = biological target: T9, AVAARKLFAP (human, also: biotinylated); assay: Pepscan ELISA, peptide on streptavidin plate
T9 peptide: AVAARKLFAP
Protocol: as §3

DNKENCPVPG [11] = biological target: T10, DNKENCPVPG (human, also: biotinylated); assay: Pepscan ELISA, peptide on streptavidin plate
T10 peptide: DNKENCPVPG
Protocol: as §3

GPDNKENCPV [12] = biological target: T11, GPDNKENCPV (human, also: biotinylated); assay: Pepscan ELISA, peptide on streptavidin plate
T11 peptide: GPDNKENCPV
Protocol: as §3

XPA 210 peptide = biological target: T12, XPA 210 peptide (human, immobilized on streptavidin coated plate (biotinylated) in the Pepscan); assay: Pepscan ELISA, peptide on streptavidin plate
T12 construct: also called 31-mer; 31-mer peptide
T12 peptide: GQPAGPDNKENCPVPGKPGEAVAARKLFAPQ
Protocol: as §3

NCPVPGKPGE [13] = biological target: T13, NCPVPGKPGE (human, also: biotinylated); assay: Pepscan ELISA, peptide on streptavidin plate
T13 construct: also called peptide 7
T13 peptide: NCPVPGKPGE
Protocol: as §3

PAGPDNKENC [14] = biological target: T14, PAGPDNKENC (human, also: biotinylated); assay: Pepscan ELISA, peptide on streptavidin plate
T14 peptide: PAGPDNKENC
Protocol: as §3

GQPAGPDNKE [15] = biological target: T15, GQPAGPDNKE (human, also: biotinylated); assay: Pepscan ELISA, peptide on streptavidin plate
T15 peptide: GQPAGPDNKE
Protocol: as §3

PVPGKPGEAV [16] = biological target: T16, PVPGKPGEAV (human, also: biotinylated); assay: Pepscan ELISA, peptide on streptavidin plate
T16 construct: also called peptide 8
T16 peptide: PVPGKPGEAV
Protocol: as §3

KPGEAVAARK [17] = biological target: T2, KPGEAVAARK; assay: Pepscan ELISA
Protocol: as §3

PGKPGEAVAA [18] = biological target: T3, PGKPGEAVAA; assay: Pepscan ELISA
Protocol: as §3

ARKLFAPQQI [19] = biological target: T4, ARKLFAPQQI; assay: Pepscan ELISA
Protocol: as §3

ASGQPAGPDN [20] = biological target: T5, ASGQPAGPDN; assay: Pepscan ELISA
Protocol: as §3

AARKLFAPQQ [21] = biological target: T6, AARKLFAPQQ; assay: Pepscan ELISA
Protocol: as §3

GEAVAARKLF [22] = biological target: T7, GEAVAARKLF; assay: Pepscan ELISA
Protocol: as §3

KENCPVPGKP [23] = biological target: T8, KENCPVPGKP; assay: Pepscan ELISA
Protocol: as §3

AVAARKLFAP [24] = biological target: T9, AVAARKLFAP; assay: Pepscan ELISA
Protocol: as §3

DNKENCPVPG [25] = biological target: T10, DNKENCPVPG; assay: Pepscan ELISA
Protocol: as §3

GPDNKENCPV [26] = biological target: T11, GPDNKENCPV; assay: Pepscan ELISA
Protocol: as §3

NCPVPGKPGE [27] = biological target: T13, NCPVPGKPGE; assay: Pepscan ELISA
Protocol: as §3

PAGPDNKENC [28] = biological target: T14, PAGPDNKENC; assay: Pepscan ELISA
Protocol: as §3

GQPAGPDNKE [29] = biological target: T15, GQPAGPDNKE; assay: Pepscan ELISA
Protocol: as §3

PVPGKPGEAV [30] = biological target: T16, PVPGKPGEAV; assay: Pepscan ELISA
Protocol: as §3

B1: XPA 210-Ar1 (antibody, V domains shown)
VH: QVQLQQSGAELVRPGASMKLSCKALGYTLTDYEMHWVKQTPAHGLEWIGAIHPGYGGTAYNQKFKGKATLTADKSSSTAYMELSSLTSEDSAVYYCTTFITKFDYWGQGTTLTVSS
VL: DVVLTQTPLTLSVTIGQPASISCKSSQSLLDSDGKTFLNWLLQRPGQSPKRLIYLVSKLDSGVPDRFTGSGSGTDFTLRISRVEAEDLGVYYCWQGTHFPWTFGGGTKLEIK
notes: Mouse monoclonal from hybridoma; also called monoclonal antibody XPA 210-Ar1
koff (human recombinant TK1 [1]): 1.61e-05 s⁻¹ | kon (human recombinant TK1 [1]): 24800 M⁻¹ s⁻¹ | Kd (human recombinant TK1 [2]): 0.65 nM | absorbance at 415 nm (KPGEAVAARK [3]): 0.116 absorbance | absorbance at 415 nm (PGKPGEAVAA [4]): 0.112 absorbance | absorbance at 415 nm (ARKLFAPQQI [5]): 0.13 absorbance | absorbance at 415 nm (ASGQPAGPDN [6]): 0.113 absorbance | absorbance at 415 nm (AARKLFAPQQ [7]): 0.137 absorbance | absorbance at 415 nm (GEAVAARKLF [8]): 3.51 absorbance | absorbance at 415 nm (KENCPVPGKP [9]): 0.109 absorbance | absorbance at 415 nm (AVAARKLFAP [10]): 0.125 absorbance | absorbance at 415 nm (DNKENCPVPG [11]): 0.108 absorbance | absorbance at 415 nm (GPDNKENCPV [12]): 0.112 absorbance | absorbance at 415 nm (XPA 210 peptide): 3.84 absorbance | absorbance at 415 nm (NCPVPGKPGE [13]): 0.114 absorbance | absorbance at 415 nm (PAGPDNKENC [14]): 0.12 absorbance | absorbance at 415 nm (GQPAGPDNKE [15]): 0.108 absorbance | absorbance at 415 nm (PVPGKPGEAV [16]): 0.115 absorbance

B2: XPA 210-Ar2 (antibody, V domains shown)
VH: QVQLQQSGAELVRPGASVKLSCKALGYTFTDYEMHWVRQTPVHGLEWIGAILPGSGGTAYNQKFKGKATLTADKSSSTAYMELSSLTSEDSAVYYCTTLITTFDYWGQGTTLTVSS
VL: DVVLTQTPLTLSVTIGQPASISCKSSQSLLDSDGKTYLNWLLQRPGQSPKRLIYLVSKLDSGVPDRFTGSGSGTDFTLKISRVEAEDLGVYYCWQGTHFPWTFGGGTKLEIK
notes: Mouse monoclonal from hybridoma; also called Sup-162; XPA-Ar2
binding result (KPGEAVAARK [17]): no binding (tested: approximately 5 µg/ml) | binding result (PGKPGEAVAA [18]): no binding (tested: approximately 5 µg/ml) | binding result (ARKLFAPQQI [19]): no binding (tested: approximately 5 µg/ml) | binding result (ASGQPAGPDN [20]): no binding (tested: approximately 5 µg/ml) | binding result (AARKLFAPQQ [21]): no binding (tested: approximately 5 µg/ml) | binding result (GEAVAARKLF [22]): no binding (tested: approximately 5 µg/ml) | binding result (KENCPVPGKP [23]): no binding (tested: approximately 5 µg/ml) | binding result (AVAARKLFAP [24]): no binding (tested: approximately 5 µg/ml) | binding result (DNKENCPVPG [25]): no binding (tested: approximately 5 µg/ml) | binding result (GPDNKENCPV [26]): no binding (tested: approximately 5 µg/ml) | binding result (NCPVPGKPGE [27]): no binding (tested: approximately 5 µg/ml) | binding result (PAGPDNKENC [28]): no binding (tested: approximately 5 µg/ml) | binding result (GQPAGPDNKE [29]): no binding (tested: approximately 5 µg/ml) | binding result (PVPGKPGEAV [30]): no binding (tested: approximately 5 µg/ml) | absorbance at 415 nm (KPGEAVAARK [3]): 0.072 absorbance | absorbance at 415 nm (PGKPGEAVAA [4]): 0.067 absorbance | absorbance at 415 nm (ARKLFAPQQI [5]): 0.063 absorbance | absorbance at 415 nm (ASGQPAGPDN [6]): 0.067 absorbance | absorbance at 415 nm (AARKLFAPQQ [7]): 0.066 absorbance | absorbance at 415 nm (GEAVAARKLF [8]): 0.072 absorbance | absorbance at 415 nm (KENCPVPGKP [9]): 0.063 absorbance | absorbance at 415 nm (AVAARKLFAP [10]): 0.077 absorbance | absorbance at 415 nm (DNKENCPVPG [11]): 0.063 absorbance | absorbance at 415 nm (GPDNKENCPV [12]): 0.063 absorbance | absorbance at 415 nm (XPA 210 peptide): 3.79 absorbance | absorbance at 415 nm (NCPVPGKPGE [13]): 0.064 absorbance | absorbance at 415 nm (PAGPDNKENC [14]): 0.063 absorbance | absorbance at 415 nm (GQPAGPDNKE [15]): 0.064 absorbance | absorbance at 415 nm (PVPGKPGEAV [16]): 0.067 absorbance

B3: XPA 210-Ar3 (antibody, V domains shown)
VH: DVQLQESGPDLVKPSQSLSLTCTVTGYSITSGYSWHWIRQFPGNKLEWLGYIHYSGSTTYNPSLKGRISITRDTSKNQFFLQLNSVTTEDTATYYCARWGTGHWYFDVWAAGTTVTVSS
VL: QAVVTQESALTTSPGKTVTLTCRSSTGAVTTTNYANWVQEKPDHLFTGLIGGTNNRVPGVPARFSGSLIGDKAALTITGAQTEDEAIYFCALWYSNHWVFGGGTKLTVL
notes: Mouse monoclonal from hybridoma; also called Sup-165
absorbance at 415 nm (KPGEAVAARK [3]): 0.059 absorbance | absorbance at 415 nm (PGKPGEAVAA [4]): 0.059 absorbance | absorbance at 415 nm (ARKLFAPQQI [5]): 0.062 absorbance | absorbance at 415 nm (ASGQPAGPDN [6]): 0.057 absorbance | absorbance at 415 nm (AARKLFAPQQ [7]): 0.06 absorbance | absorbance at 415 nm (GEAVAARKLF [8]): 0.057 absorbance | absorbance at 415 nm (KENCPVPGKP [9]): 0.058 absorbance | absorbance at 415 nm (AVAARKLFAP [10]): 0.062 absorbance | absorbance at 415 nm (DNKENCPVPG [11]): 0.059 absorbance | absorbance at 415 nm (GPDNKENCPV [12]): 0.06 absorbance | absorbance at 415 nm (XPA 210 peptide): 0.136 absorbance | absorbance at 415 nm (NCPVPGKPGE [13]): 1.99 absorbance | absorbance at 415 nm (PAGPDNKENC [14]): 0.055 absorbance | absorbance at 415 nm (GQPAGPDNKE [15]): 0.057 absorbance | absorbance at 415 nm (PVPGKPGEAV [16]): 1.84 absorbance
